Assay results taken from the supplement of paper PMC6757056.
± gives the standard deviation of the averaged measurements.

B1: library; a variant is named by its letters at N, in order (parent)
chain: GCUGUCACCGAGAAACUGUGAAGUAUAUCUUAAACCUGGGCACUUAAAAGAUAUAUGGAGUUAGUAGUGCAACCUGCUCGGUCUGAUGAGUCCNNNNNNGGACGAAACAGC

Columns and labels:
cyclic di-GMP [1] = variants of: B1; assay: normalized RNA/DNA level without ligand (relative to sTRSVctl = 100) (log10 (% of sTRSVctl)); HEK293T; ligand: cyclic di-GMP (c-di-GMP-II aptamer); higher = less ribozyme self-cleavage, higher mRNA level; details: reporter: mCherry (pCS4076), ligand present: no
Method in brief: (§1)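 Total RNA, extracted with EDTA 72 h after HEK293T cells were transfected with 4 µg per 6-well well of reporter-linked ribozyme switch library plasmids, was reverse-transcribed, amplified, barcoded and sequenced. Ligand, if used, was added 1 h before transfection. RNA level was derived from RNA reads divided by DNA reads and normalized to a spiked-in non-cleaving sequence or to the top sequences. This was multiplied by 100 and log10-transformed, with the top set of 25 sequences and a ≥100 DNA read minimum.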

cyclic di-GMP [2] = variants of: B1; assay: normalized RNA/DNA level with ligand (relative to sTRSVctl = 100) (log10 (% of sTRSVctl)); HEK293T; ligand: cyclic di-GMP (c-di-GMP-II aptamer); ligand concentration (+) RNA-Seq: 1 mM; higher = less ribozyme self-cleavage, higher mRNA level; details: reporter: mCherry (pCS4076), ligand present: yes
Method in brief: as §1

Row | Variant | normalized RNA/DNA level without ligand (log10) (cyclic di-GMP [1]) | normalized RNA/DNA level with ligand (log10) (cyclic di-GMP [2])
1 | CGGGUU | 1.748 ± 0.012 | 1.82 ± 0.13
2 | GUUCUU | 1.7 ± 0.084 | 1.84 ± 0.12
3 | UUGUAA | 1.685 ± 0.015 | 1.86 ± 0.15
4 | AUCGAG | 1.56 ± 0.058 | 1.78 ± 0.1
5 | UCCGAG | 1.64 ± 0.082 | 1.79 ± 0.11
6 | GUACCG | 1.77 ± 0.037 | 1.84 ± 0.069
7 | UGACUU | 1.68 ± 0.043 | 1.85 ± 0.13
8 | CGUGUC | 1.67 ± 0.055 | 1.82 ± 0.038
9 | GGCAAU | 1.65 ± 0.1 | 1.75 ± 0.13
10 | UGCCUA | 1.728 ± 0.0086 | 1.86 ± 0.074
11 | GGCUAU | 1.66 ± 0.048 | 1.78 ± 0.021
12 | CAAGAU | 1.6 ± 0.048 | 1.79 ± 0.086
13 | UAGUAG | 1.7 ± 0.036 | 1.84 ± 0.1
14 | CCACGA | 1.6 ± 0.04 | 1.74 ± 0.086
15 | GUAGUG | 1.744 ± 0.0031 | 1.81 ± 0.12
16 | CGUAUC | 1.58 ± 0.045 | 1.76 ± 0.098
17 | CUAAGU | 1.75 ± 0.063 | 1.84 ± 0.099
18 | GAACUU | 1.68 ± 0.051 | 1.83 ± 0.096
19 | ACGCUA | 1.53 ± 0.026 | 1.72 ± 0.13
20 | AGCCAC | 1.7 ± 0.041 | 1.86 ± 0.087

Row | Variant | normalized RNA/DNA level without ligand (log10) (cyclic di-GMP [1]) | normalized RNA/DNA level with ligand (log10) (cyclic di-GMP [2])
21 | AGUGGU | 1.56 ± 0.089 | 1.759 ± 0.014
22 | GGAAAA | 1.3 ± 0.025 | 1.49 ± 0.12
23 | UGGGAG | 1.673 ± 0.012 | 1.79 ± 0.14
24 | CCUAGU | 1.72 ± 0.02 | 1.85 ± 0.11
25 | AUUAAG | 1.55 ± 0.041 | 1.75 ± 0.14
26 | CAUUGU | 1.78 ± 0.023 | 1.88 ± 0.046
27 | AAGUGG | 1.68 ± 0.033 | 1.78 ± 0.12
28 | AAGUGU | 1.6 ± 0.034 | 1.76 ± 0.14
29 | AAGUGA | 1.38 ± 0.19 | 1.5546 ± 0.00035
30 | CCAACU | 1.56 ± 0.0039 | 1.75 ± 0.15
31 | ACCACG | 1.633 ± 0.01 | 1.81 ± 0.12
32 | GGAACC | 1.74 ± 0.039 | 1.86 ± 0.14
33 | UCCUAA | 1.63 ± 0.077 | 1.79 ± 0.067
34 | UCCUAC | 1.75 ± 0.04 | 1.87 ± 0.14
35 | CUCCAC | 1.719 ± 0.016 | 1.84 ± 0.092
36 | CUCCAA | 1.46 ± 0.096 | 1.72 ± 0.083
37 | AAAUCA | 1.595 ± 0.0024 | 1.77 ± 0.098
38 | AAAUCU | 1.7 ± 0.026 | 1.82 ± 0.13
39 | CGAGAC | 1.643 ± 0.0051 | 1.77 ± 0.16
40 | CGCGCG | 1.83 ± 0.025 | 1.92 ± 0.038

Row | Variant | normalized RNA/DNA level without ligand (log10) (cyclic di-GMP [1]) | normalized RNA/DNA level with ligand (log10) (cyclic di-GMP [2])
41 | AUAAAA | 1.53 ± 0.056 | 1.67 ± 0.073
42 | AUAAAU | 1.59 ± 0.005 | 1.8 ± 0.11
43 | AGUGCU | 1.67 ± 0.043 | 1.82 ± 0.096
44 | UUGUCU | 1.8 ± 0.03 | 1.92 ± 0.086
45 | GGCCUA | 1.61 ± 0.12 | 1.83 ± 0.13
46 | CACGAG | 1.63 ± 0.028 | 1.81 ± 0.076
47 | GGAUCA | 1.63 ± 0.02 | 1.77 ± 0.13
48 | GCCCUG | 1.76 ± 0.021 | 1.86 ± 0.11
49 | UCGAGG | 1.772 ± 0.011 | 1.87 ± 0.13
50 | UCCGGU | 1.67 ± 0.024 | 1.85 ± 0.1
51 | GCACUG | 1.54 ± 0.092 | 1.75 ± 0.074
52 | UGUACG | 1.792 ± 0.0062 | 1.87 ± 0.032
53 | GCUGGC | 1.57 ± 0.052 | 1.71 ± 0.14
54 | AUUCCG | 1.75 ± 0.021 | 1.84 ± 0.078
55 | AUUCCU | 1.74 ± 0.044 | 1.86 ± 0.1
56 | AGAUAU | 1.61 ± 0.046 | 1.78 ± 0.14
57 | AGAUAC | 1.64 ± 0.029 | 1.79 ± 0.12
58 | CAAUAC | 1.592 ± 0.015 | 1.73 ± 0.13
